Positions count from the first letter of the chain named. In names and notes the source's numbering stands.
B1: YS49: mutated penicillin expandase (DAOCS) with substitution L277K (protein, UniProt P18548 1-311, looked up, variant L277K)
Deacetoxycephalosporin C …: MDTTVPTFSLAELQQGLHQDEFRRCLRDKGLFYLTDCGLTDTELKSAKDLVIDFFEHGSEAEKRAVTSPVPTMRRGFTGLESESTAQITNTGSYSDYSMCYSMGTADNLFPSGDFERIWTQYFDRQYTASRAVAREVLRATGTEPDGGVEAFLDCEPLLRFRYFPQVPEHRSAEEQPLRMAPHYDLSMVTLIQQTPCANGFVSLQAEVGGAFTDLPYRPDAVLVFCGAIATLVTGGQVKAPRHHVAAPRRDQIAGSSRTSSVFFLRPNADFTFSVPKARECGFDVSLDGETATFQDWIGGNYVNIRRTSKA
B2: YS67: mutated penicillin expandase (DAOCS) with substitutions V275I and I305M (protein, UniProt P18548 1-311, looked up, variant V275I I305M)
Deacetoxycephalosporin C …: B1 Deacetoxycephalosporin C … with V275I, K277L, I305M
B3: YS16: wild-type expandase (DAOCS, cefE gene) from Streptomyces clavuligerus, parent strain (protein, UniProt P18548 1-311, looked up)
Deacetoxycephalosporin C …: B1 Deacetoxycephalosporin C … with K277L
B4: YS12: mutated penicillin expandase (DAOCS) with substitution N304K (protein, UniProt P18548 1-311, looked up, variant N304K)
Deacetoxycephalosporin C …: B1 Deacetoxycephalosporin C … with K277L, N304K
B5: YS8: mutated penicillin expandase (DAOCS) with substitution I305L (protein, UniProt P18548 1-311, looked up, variant I305L)
Deacetoxycephalosporin C …: B1 Deacetoxycephalosporin C … with K277L, I305L
B6: YS11: mutated penicillin expandase (DAOCS) with substitution I305M (protein, UniProt P18548 1-311, looked up, variant I305M)
Deacetoxycephalosporin C …: B1 Deacetoxycephalosporin C … with K277L, I305M

Columns and labels:
Format in all cases: biochemical
[1] = Kinetic assay of purified DAOCS with penicillin G (standard penicillin G assay, HPLC of cephalosporin G); details: for penicillin G, 20 μg purified DAOCS, 1 mM α-ketoglutarate, 30° C.; for Km: triplicate, Hanes-Woolf Plot
Method: (§1) For penicillin G, 20 μl of cell extracts was added into a standard 200 μl assay reaction containing 50 mM Mops/pH 7.5, 4 mM ascorbate, 1 mM FeSO4, 4 mM α-ketoglutarate and 7 mM penicillin G, and incubated at 30° C. for 20 minutes. The reaction was stopped by addition of 200 μl of ethanol, followed by a centrifugation at 15,000×g for 5 minutes. The concentration of cephalosporin G in supernatant was analyzed by HPLC with 40 μl injection. The mobile phase was 25 mM potassium phosphate/pH 6.5 with 19% acetonitrile at a flow rate of 1 ml/min. The retention time for cephalosporin G was 8.5 minutes and 12.5 minutes for penicillin G with detection at 215 nm, and the product at 8.5 minutes in DAOCS reaction was confirmed by ESI-LC/MS (positive): [M+H]^+=333. […] The different combinations of the mutated amino acids mentioned above were also constructed by site-directed mutagenesis.
(§2) The cell extract (2 ml) of a candidate mutant was applied onto a HiTrap Q column (5 ml) pre-equilibrated with buffer B (50 mM Mops/pH 7.5, 1 mM DTT, 0.4 mM pefabloc SC, and 0.5 μg/ml leupeptin). Then, the column was washed with 20 ml of buffer B, followed by a further wash with 25 ml of buffer B containing 120 mM NaCl, and DAOCS was eluted off with 20 ml of buffer B containing 150 mM NaCl. The DAOCS containing fractions were pooled (10 ml), concentrated by UF 15 device (NMWL 5K; Millipore), and loaded onto a Hiload Superdex 75 (16/60) column pre-equilibrated with buffer B at a flow rate of 1 ml/min.
(§3) The standard penicillin G assay was followed for kinetic assay, but 20 μg of purified DAOCS was used and the concentration of α-ketoglutarate was reduced to 1 mM. Kinetic parameters were obtained from triplicate experiments by Hanes-Woolf Plot. For assays using penicillin N as a main substrate, a total volume of 240 μl reaction containing 50 mM Hepes/pH 7.5, 0.4 mM ascorbate, 0.1 mM FeSO4, 0.1 mM α-ketoglutarate, 0.1 mM penicillin N and 0.5 μg of purified DAOCS was incubated at 30° C. for 10 minutes, then the same volume of 10 mM EDTA/pH 7.5 was added, and the mixture was subjected to ultrafiltration with UF 0.5 device (NMWL 5000, Millipore). The filtrate was analyzed by HPLC using 25 mM potassium phosphate/pH 6.5 as a mobile phase. The retention time of DAOC and penicillin N was 12 minutes and 13.5 minutes, respectively The results of kinetic parameters are shown in Table 1, wherein the definition and calculation of the parameters are described in Lehninger et al. Principles of Biochemistry, 2nd Ed. Worth Publishers, New York (1993) which is incorporated herein for reference.

[2] = Kinetic assay of purified DAOCS with penicillin N as main substrate; details: for kcat / Km: for penicillin N, 0.5 μg purified DAOCS, 30° C., 10 minutes; for Km: triplicate, Hanes-Woolf Plot
Method: as §2, §3

[3] = DAOCS activity assay with cell extracts; details: 20 μl cell extract, 7 mM penicillin G, 30° C., 20 minutes
Method: BL21(DE3) transformants were grown overnight in 5 ml of LB medium with 50 μg/ml kanamycin at 30° C. This culture was used to inoculate 100 ml of the same medium and grown at 30° C. for 1 hour. Then 0.1 mM IPTG was added to induce DAOCS indirectly at 30° C. for 4 hours. Cells were harvested, washed with buffer A (50 mM Mops/pH 7.5, 1 mM PMSF, 1 mM DTT, and 0.5 μg/ml leupeptin), lysed by sonication (VCX 750; Sonics & Materials, USA), and centrifuged at 15,000×g for 15 minutes. The supernatant was used as a cell extract.
as §1

[4] = Relative activity of purified combined mutants compared to wild type DAOCS; details: 1 mM penicillin G; activity of wild-type DAOCS as 100%
Method: as §1, §3
The relative activities of the mutants are determined according to Chin H. S. et al supra with the activity of wild-type DAOCS as 100% and shown in Table 2. The assay was performed with 1 mM penicillin G, and the other conditions were the same as standard assay.

| Molecule | kcat [1] | Km [1] | kcat [2] | Km [2] | expandase activity on penicillin G compared to parent strain YS16 [3] | Relative Activities [4] | expansion activity on penicillin N, folds higher than wild-type YS16 ([2]; penicillin N, compared to wild-type YS16) |
| --- | --- | --- | --- | --- | --- | --- | --- |
| B1 | 0.0514 ± 0.0008 S^−1 | 720 ± 20 µM | 0.220 ± 0.042 S^−1 | 11 ± 5 µM | higher expandase activities on penicillin G than the parent strain YS16 |  |  |
| B2 | 0.1458 ± 0.0038 S^−1 | 250 ± 80 µM | 0.316 ± 0.032 S^−1 | 13 ± 5 µM |  | 500% |  |
| B3 | 0.0453 ± 0.0010 S^−1 | 2580 ± 220 µM | 0.307 ± 0.038 S^−1 | 14 ± 6 µM |  | 100% |  |
| B4 | 0.0564 ± 0.0003 S^−1 | 220 ± 30 µM | 0.366 ± 0.023 S^−1 | 4 ± 1 µM | higher expandase activities on penicillin G than the parent strain YS16 |  | 4 folds |
| B5 | 0.0759 ± 0.0015 S^−1 | 660 ± 70 µM | 0.284 ± 0.030 S^−1 | 6 ± 2 µM | higher expandase activities on penicillin G than the parent strain YS16 |  |  |
| B6 | 0.1452 ± 0.0020 S^−1 | 750 ± 40 µM | 0.310 ± 0.004 S^−1 | 12 ± 1 µM | higher expandase activities on penicillin G than the parent strain YS16 |  |  |

Source: patent publication US6905854B2, “Mutated penicillin expandase and process for preparing 7-ADCA using the same” (Synmax Biochemical Co., Ltd., priority 2002, dated 2005)
